According to article PMC11986105 (2025):
Several values for one entry are separate records, joined by “and”; a condition that tells them apart may be missing. Equal entries are not always repeated. Ends that are not written are not given here.

Tests used:
[1] = biological target: T1, E. coli K-12 BamA β-barrel (residues 421–810), N-terminally biotinylated (E. coli K-12 (strain MG1655), UniProt P0A940 421-810, biotin on the N-terminal Avitag (BirA ligase)); test: SPR
[2] = biological target: T1, E. coli K-12 BamA β-barrel (residues …); test: SPR; apparent, BamA pre-equilibrated with 2 uM darobactin
[3] = biological target: T1, E. coli K-12 BamA β-barrel (residues …); test: SPR; remark: listed apart in the source

| Binder | koff [1] [s⁻¹] | Kd [2] [nM] | Kd [3] |
| --- | --- | --- | --- |
| WNWSKSF (also: post-translationally formed bicyclic ring structures) [darobactin] | 0.012 | – | – |
| FLWFYHRPVRGFDCG (also: cyclic peptide, closure not given here) [cyclic peptide CP1] | 0.0023 | ~5 | 6.6 nM and ~8 nM |
